Target: MBP-NES^MVM
Test: MST

Substance “yCRM1a C152S/C539T (from UniProt P30822 1-1055) (receptor)” has a fold weaker affinity than the C152/C539/C1022 triple mutant of 5 fold.

— publication doi:10.1101/2020.08.05.237479
